Measured values published in article PMC7201719.

How the values were obtained:
[1] = target: Heat shock cognate 71 kDa protein (chicken (endogenous in DF-1)) (UniProt O73885)
[2] = target: Heat shock cognate 71 kDa protein (chicken (endogenous in DF-1)) (UniProt O73885); remark: listed apart in the source

Chain of UniProt O73885 (O73885 whole entry): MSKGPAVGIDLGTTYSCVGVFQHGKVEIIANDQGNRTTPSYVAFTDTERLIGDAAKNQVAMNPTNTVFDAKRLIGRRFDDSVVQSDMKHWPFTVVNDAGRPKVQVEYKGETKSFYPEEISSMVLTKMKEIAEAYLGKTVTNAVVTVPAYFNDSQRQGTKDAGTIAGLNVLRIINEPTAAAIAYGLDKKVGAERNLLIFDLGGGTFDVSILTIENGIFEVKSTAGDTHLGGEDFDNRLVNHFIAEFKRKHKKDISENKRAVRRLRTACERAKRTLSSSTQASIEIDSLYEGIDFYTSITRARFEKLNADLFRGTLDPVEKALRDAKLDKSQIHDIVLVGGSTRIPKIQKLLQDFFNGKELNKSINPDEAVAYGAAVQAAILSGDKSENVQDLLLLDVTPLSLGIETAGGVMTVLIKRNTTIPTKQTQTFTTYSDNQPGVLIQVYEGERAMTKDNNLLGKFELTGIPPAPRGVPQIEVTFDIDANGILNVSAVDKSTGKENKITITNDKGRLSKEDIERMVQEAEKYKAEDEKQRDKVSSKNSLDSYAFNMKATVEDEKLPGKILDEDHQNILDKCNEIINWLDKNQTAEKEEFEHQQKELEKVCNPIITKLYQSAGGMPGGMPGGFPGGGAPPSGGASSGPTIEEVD

Substance: IBDV VP2 protein (natural protein)
- viral titer of IBDV in DF-1 cells pretreated with 5 uM of the HSC70 inhibitor VER155008, 24-72 h after infection (untreated control 3.15-7.23), whole IBDV virus (log10TCID50/mL) [1]: 0
- VP2/GAPDH by western blot in DF-1 cells pretreated with anti-HSC70 antibody at 25, 12.5 and 6.25 ug/mL and infected with IBDV (normal IgG 3.329, no antibody 3.345) [2]: 1.43 VP2/GAPDH
